The values that follow come from US20260069687A1.

For the assay, the target named is Claudin 18 splice variant 2 (CLDN18.2) (human). Briefly: cell-based or functional assay.

IMAB362, sequence (VH): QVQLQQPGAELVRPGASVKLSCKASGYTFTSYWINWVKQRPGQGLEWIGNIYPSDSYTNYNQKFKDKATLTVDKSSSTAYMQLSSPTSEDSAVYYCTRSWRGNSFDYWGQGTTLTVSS
IMAB362, sequence (VL): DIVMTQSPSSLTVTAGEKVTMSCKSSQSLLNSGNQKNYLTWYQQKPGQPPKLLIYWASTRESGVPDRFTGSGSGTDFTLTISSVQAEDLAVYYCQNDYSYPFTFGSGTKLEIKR

IMAB362 (antibody): the CDC lysis of CLDN18.2-transfected CHO-K1 cells, 0.5 µg/ml IMAB362 in pooled sera from healthy controls, 80 min was 64.5%; the CDC lysis of CLDN18.2-transfected CHO-K1 cells, 0.5 µg/ml fresh IMAB362 in patient pre-infusion serum (20% v/v), 80 min was 71%; the CDC lysis of CLDN18.2-transfected CHO-K1 cells, 0.5 µg/ml fresh IMAB362 in pre-infusion serum of patient 0204, 80 min worked out at 93.9%; the EC50 of CDC on CLDN18.2 positive CHO-K1 target cells amounted to 0.5 µg/mL. In addition, the EC80-100 of total cytotoxicity (ADCC plus serum components) on NUGC-4 cells, healthy donor PBMCs, E:T 40:1, 25% serum is 200 µg/mL; the maximal specific lysis of NUGC-4 target cells, ADCC with patient PBMCs (E:T 20:1, 24 h), at ~30 µg/ml IMAB362 lay within 27 to 77%; the specific killing of NUGC-4 cells by IMAB362 present in patient serum 28-32 days after administration (healthy donor PBMCs, E:T 40:1) is greater than 48%.
